Measurements taken from patent publication US20050283857A1.

Legend:
[1] = target: Cad11-12 truncated Bt-R1a cadherin expressed in S2 cells (Manduca sexta); assay: 125I-Cry1Ab saturation binding on S2 cell suspensions
[2] = target: Cad11-12 truncated Bt-R1a cadherin expressed in S2 cells (Manduca sexta); assay: 125I-Cry1Ab toxin binding saturation assay on S2 cells; concentration of receptors
[3] = target: Cad12 truncated Bt-R1a cadherin expressed in S2 cells (Manduca sexta); assay: as above
[4] = target: Cad7-12 truncated Bt-R1a cadherin expressed in S2 cells (Manduca sexta); assay: as above
[5] = target: Manduca sexta cadherin Bt-R1a, full length, expressed in Drosophila S2 cells (Manduca sexta); assay: as above
[6] = target: Cad11-12 truncated Bt-R1a cadherin expressed in S2 cells (Manduca sexta); assay: 125I-Cry1Ab toxin binding saturation assay on S2 cells; dissociation constant (Kcom)
[7] = target: Cad12 truncated Bt-R1a cadherin expressed in S2 cells (Manduca sexta); assay: as above
[8] = target: Manduca sexta cadherin Bt-R1a, full length, expressed in Drosophila S2 cells (Manduca sexta); assay: as above

## Cry1Ab toxin (ligand)
[1]
  fold higher concentration of binding sites than Cad12: 3 fold
[2]
  Bmax (fmoles/mg protein): 3320
[3]
  Bmax (fmoles/mg protein): 1410
[4]
  Bmax (fmoles/mg protein): 506
[5]
  Bmax (fmoles/mg protein): 625
[6]
  Kd: 3.52 nM
[7]
  Kd: 2.87 nM
[8]
  Kd: 3.55 nM
